Literature values, collected in paper PMC2728785 (Biomaterials, 2009).
Values belong to the compound of their own block, whether it stands above or below them.

Tests used:
[1] = versus unmodified bovine hemoglobin

Compound: 12 copies of a 5 kDa PEG conjugated to bovine hemoglobin: PEGylated bovine hemoglobin from the literature
- increase of blood half-life [1]: 14 factor
- increase of systemic availability [1]: 8 factor

- degradation rate relative to the less hindered cysteamine linker (disulfide bond prepared from the sterically hindered linker): about 100 times slower
Compound: CC(C)(S)CN [1-amino-2-methyl-2-propanethiol]

Compound: NCCS [cysteamine linker, cysteamine]
- t1/2 of GSH-dependent disulfide degradation (disulfide bond prepared from the linker): 3 min
